Reference: patent US20170128520A1 (E AND B TECHNOLOGIES, published 2017)

Molecular target: T1, endothelial nitric oxide synthase (eNOS) of cultured bovine aorta endothelial cells (BAEC) (bovine, UniProt P29473 2-1205)
T1 sequence (looked up): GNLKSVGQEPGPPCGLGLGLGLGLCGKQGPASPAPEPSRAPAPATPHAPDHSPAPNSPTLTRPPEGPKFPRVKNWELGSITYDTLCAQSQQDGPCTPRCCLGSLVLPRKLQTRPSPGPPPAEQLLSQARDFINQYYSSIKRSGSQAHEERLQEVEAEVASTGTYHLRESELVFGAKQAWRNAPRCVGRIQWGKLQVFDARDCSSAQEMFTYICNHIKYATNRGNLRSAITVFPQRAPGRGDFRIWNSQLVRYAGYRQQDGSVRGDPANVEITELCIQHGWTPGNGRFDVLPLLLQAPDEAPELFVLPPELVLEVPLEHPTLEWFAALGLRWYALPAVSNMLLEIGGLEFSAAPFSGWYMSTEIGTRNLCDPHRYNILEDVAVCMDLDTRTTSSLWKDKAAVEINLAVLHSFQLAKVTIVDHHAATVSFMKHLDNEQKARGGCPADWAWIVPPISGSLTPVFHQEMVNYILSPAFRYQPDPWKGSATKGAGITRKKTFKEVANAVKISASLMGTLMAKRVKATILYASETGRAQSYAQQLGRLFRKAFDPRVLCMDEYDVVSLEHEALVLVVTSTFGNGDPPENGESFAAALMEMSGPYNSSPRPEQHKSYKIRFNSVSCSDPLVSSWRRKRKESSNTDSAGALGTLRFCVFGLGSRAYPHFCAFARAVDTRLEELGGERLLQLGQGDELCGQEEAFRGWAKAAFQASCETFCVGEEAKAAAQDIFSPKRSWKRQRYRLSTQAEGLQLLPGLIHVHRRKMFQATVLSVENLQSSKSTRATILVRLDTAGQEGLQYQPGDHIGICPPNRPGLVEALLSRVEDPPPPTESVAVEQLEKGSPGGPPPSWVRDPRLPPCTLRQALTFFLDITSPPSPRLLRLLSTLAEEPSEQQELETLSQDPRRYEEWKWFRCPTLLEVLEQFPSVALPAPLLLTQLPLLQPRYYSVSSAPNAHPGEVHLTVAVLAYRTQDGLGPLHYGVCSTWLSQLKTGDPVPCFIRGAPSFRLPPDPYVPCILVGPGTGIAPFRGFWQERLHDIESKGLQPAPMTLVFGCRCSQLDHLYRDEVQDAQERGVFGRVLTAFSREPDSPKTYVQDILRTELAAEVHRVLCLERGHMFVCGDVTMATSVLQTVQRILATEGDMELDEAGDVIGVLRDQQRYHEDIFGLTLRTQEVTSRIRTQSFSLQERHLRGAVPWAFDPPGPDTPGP
Test: cell-based or functional assay

| Binder | EC50 of inhibition of VEGF-induced NO release by BAEC (dose response, non-linear regression) [µM] |
| --- | --- |
| RQIKIWFQNRRMKWKKDGIWKASFTTFTVTKYWFYR [AP-Cav (SEQ ID NO. 2/SEQ ID NO. 5)] | 1.8 |
| RRPPRDGIWKASFTTFTVTKYWFYR [Endo5-Cav (SEQ ID NO. 1/SEQ ID NO. 5)] | 7.5 |
